These results are taken from EP1287147B1.

Experiment [1] concerns the target human CD3 (CD3 epsilon of the T-cell receptor complex) on Jurkat cells (human) (UniProt P07766). The experiment in a line: competition with 125I-UCHT1 tracer on Jurkat cells; competitor at 100 nM.
Experiment [2] shares this target. The experiment in a line: competition with 125I-UCHT1 tracer on Jurkat cells; competitor at 1 nM.
Experiment [3] has the same target. The experiment in a line: cell-based or functional assay.

As for “UCHT1 monoclonal antibody (murine anti-human CD3, IgG1)”, the % of 125I-UCHT1 tracer bound (% of tracer bound without competitor) was found to be 0 in experiment [1] and 80 in experiment [2].

For the substance “sFv-DT390 (DT390-sFv(UCHT1'), anti-CD3 single-chain immunotoxin with truncated diphtheria toxin)”, the ratio of IC50 of sFv-DT390 to IC50 of UCHT1-CRM9 in experiment [3] was determined as 16 fold.

In the case of “scUCHT1 (divalent chimeric anti-human CD3 single chain antibody, UCHT1 VL-linker-VH fused to human IgM Fc CH2-CH4) (Fc fusion)”, the figures for the % of 125I-UCHT1 tracer bound (% of tracer bound without competitor) in experiment [1] and in experiment [2] were 0 and 80, respectively.
